Positions count from the first letter of the chain named.
T1: recombinant human IL-19 (human, UniProt Q9UHD0 25-177)
T1 construct: also called human IL-19 recombinant protein; interleukin-19
T1 sequence: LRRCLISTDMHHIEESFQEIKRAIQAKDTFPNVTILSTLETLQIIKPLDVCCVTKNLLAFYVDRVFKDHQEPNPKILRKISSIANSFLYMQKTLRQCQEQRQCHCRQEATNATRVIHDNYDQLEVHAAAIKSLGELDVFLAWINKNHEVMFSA

B1: rabbit derived IL-19 Ab 1 (R_1) (antibody, V domains shown)
VH: QQLEESGGGLVQPEGSLTLTCTASGFSFSSSYWICWVRQAPGKGLEWLACIDTGVSGDTYYANWAEGRFTISKTSSTTVTLQMTSLTAADTATYFCARDIFGSAIDNSLWGPGTLVTVSS
VL: AIDMTQTPASVSEPVGGTVTIKCQASQSISSYLAWYQQKPGQPPKLLIYSASTLASGVPSRFRGSGSGREFTLTISDLECADAATYYCQCHYHGSSYWDNSFGGGTEVVVK
B2: rabbit derived IL-19 Ab 2 (R_2) (antibody, V domains shown)
VH: B1 VH with E66K
VL: DVVMTQTPASVEAAVGGTVTIKCQASESIGNALAWYQQKPGQPPKLLIYDASKLASGVPSRFKGSGSGTQFTLTISDLECADAATYYCQCHYHGSSYWDNSFGGGTEVVVK
B3: rabbit derived IL-19 antibody R_3 (antibody, V domains shown)
VH: CQSLEESGGGLVEPEGSLTLTCKASGFSFSSSYWICWVRQAPGKGLEWIACTDTFSGDTYYASWAKGRFTISKTSSTTVTLRMTSLTDADTATYFCARDIFGTAVHISLWGPGTLVTVSS
VL: B2 VL with A9S, E27Q, N31S, A32S, P43R, D50G, K53T, Q70E
B4: rabbit derived IL-19 Ab 39 (R_39) (antibody, V domains shown)
VH: QEQLKESGGGLVQPGGSLKLSCKASGFDLSSYGVSWVRQAPGKGLEWIGYIDPVFGSTYYANWVNGRFTISSDNAQNTLYLQLNSLTAADTATYFCARGSGYVYYGYTYDLWGPGTLVTVSS
VL: DIVMTQTPASVEAAVGGTVTIKCQASQSIYRYLSWYQQKPGQRPKLLIYGASNLASGVSSRFKGSGSGTEFTLTISDLECADAATYYCQSYYYSSSSGYGNVFGGGTEVVVKG
B5: murine derived IL-19 Ab 1 (M_1) (antibody, mouse IgG1, kappa, V domains shown)
VH: EVQLQQSGPVLVKPGASVKMSCKASGYKFTDYFVGWVKQSHGKSLEWIGYVDPENGYTRCNQKFKGKATLTVDKSSSTAYMELNSLTSEDSAVYYCARYDYDWAWFTNWGQGTLVTVSA
VL: DIVMTQSPSSLAMSVGQKVTMSCKSSQSLLSSYNQKNYLAWYQQKPGQSPKLLVYFASTRPPGVPDRFIGSGSGSDFTLTISSVQAEDLADYFCQQHERLPITFGAGTKLELKR
B6: murine derived IL-19 Ab 5 (M_5) (antibody, mouse IgG1, kappa, V domains shown)
VH: EVQLQQSGPVLVKPGASVKMSCKASGYPFNDYFLGWVKQSHGKSLEWIGSINPDNDYTMSNQKFKGKATLTVDKSSSTAYMELNSLTSEDSAVYYCARYDYDWAWFAHWGQGTLVTVSA
VL: B5 VL with Q44R, T59Q, P61A, P62T, E98T
B7: murine derived IL-19 Ab 2 (M_2) (antibody, mouse IgG1, kappa, V domains shown)
VH: LVQLQQSDAELVKPGASLKISCKVSGYTFTDHALHWMKQRPEQGLEWIGYIYPRDGSTKYNEKFKGKATLTADRSSSTAYMELNSLTSEDSAVYFCARGWDFAMDYWGQGTSVTVSS
VL: DIVLTQSPESLAVSLGQRATISCRASESVDNYGISFIHWYQQKPGQPPKLLIYRASNLKSGIPARFSGRGSRTDFTLTINPVETDDVATYYCQQINKDPLTFGAGTKLELKR
B8: rabbit derived IL-19 antibody R_4 (antibody, V domains shown)
VH: CQSVEESGGRLVTPGTPLTLTCTVSGIDLSIYAMGWVRQAPGKGLEYIGIIDTTGTAYYARWAKGRFTISKTSATVALKITSPTTEDTATYFCARDSGSLYYGSYALWGPGTLVTVSS
VL: DVVMTQTPSSVSEPVGGTVTIKCQASQSIYSYLSWYQQKPGQPPKLLIYEASKLASGVPSRFKGSGSGTQFTLTISGVECADAATYYCQQGYSSSNVDNTFGGGTEVVVT
B9: murine derived IL-19 Ab 3 (M_3) (antibody, mouse IgG1, kappa, V domains shown)
VH: QIQLVQSGPELKKPGETVKISCKASGYTFTTYGMSWVKQAPGKGLKWMVWINTYSGVPTYVDDFKGRFAFSLETSASTAYLQINNLKNEDTATYFCARRDEGFAYWGQGTLVTVSA
VL: DIKMTQSPSSMYASLGERVTITCKASQDINSYLSWFQQKPGKSPKTLIYRANRLVDGVPSRFSGSGSGQDYSLTISSLEYEDMGIYFCLQYDDFPYTFGGGTKLEIKR

molecular target: T1, recombinant human IL-19; assay: BLI (Octet Red96), antibody on AMQ biosensor, IL-19 in solution, 25 C, 1:1 fit
Experimental: Except as noted, all reagents and materials are from ForteBio (Freemont, Calif.). An AMQ biosensor is used to immobilize antibody of interest for analysis.
Binding data is processed using standard double-referencing and fit to a 1:1 binding model using Data Analysis v9.0 evaluation software, to determine the association rate (kₒₙ, M⁻¹ s⁻¹ units), dissociation rate (koff, s⁻¹ units), and Rₘₐₓ (nm units). The equilibrium dissociation constant (KD) was calculated from the relationship KD=koff/kₒₙ, and is in molar units.

Kd [nM] | koff [s⁻¹] | kon [M⁻¹ s⁻¹] | Binder
0.311 | 1.04e-05 | 33300 | B1
0.103 | 4.42e-05 | 428000 | B2
< 0.001 | < 1e-07 | 391000 | B3
170 | 0.0348 | 206000 | B4
0.0576 | 6.32e-05 | 1.1e+06 | B5
0.0521 | 3.58e-05 | 688000 | B6
2.9 | 0.000185 | 63700 | B7
8.52 | 0.0013 | 152000 | B8

molecular target: T1, recombinant human IL-19; assay: BLI; immobilized antibody loaded with 100 nM human IL-19, then competitor human IL-20R beta Fc-fusion added; the response is that of the receptor-Fc step
Text: Binding between a ligand immobilized on the biosensor tip surface and an analyte in solution produces an increase in optical thickness at the biosensor tip, which results in a wavelength shift (expressed in nm).

IL-20R beta Fc protein binding response (nm) | Binder
-0.0421 | B4
-0.0075 | B5
-0.0124 | B6
0.361 | B7
0.354 | B9

Reference: US20230220062A1 (Eli Lilly, published 2023)
